Key:
[1] = target: TGF-beta1 (hTGF-beta1) (Homo sapiens) (UniProt P01137); assay: filter
[2] = target: TGF-beta1 (hTGF-beta1) (Homo sapiens) (UniProt P01137); assay: cell_activity; conditions: 2'-F C and U; MLEC assay; sequence contains N; column inferred

TGF-beta1 (hTGF-beta1) (Homo sapiens), sequence (P01137 279-390): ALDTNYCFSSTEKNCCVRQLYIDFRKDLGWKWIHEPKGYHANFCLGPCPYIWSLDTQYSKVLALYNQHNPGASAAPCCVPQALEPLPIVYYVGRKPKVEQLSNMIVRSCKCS

Sequence: GGGAGGACGAUGCGGUUAACCNUAAAUACGGCUUGANUUCUUCCGCAGACGACUCGCCCGA [30-19]
- Kd ([1]; 2'-F C and U, biphasic, Kd1 5.7±1.9 nM): 0.346 nM

Sequence: GGGAGGACGAUGCGGGACCNUUGUNUGCGAUUCAACUCGUAGGUCUUCUCACGUGCAGACGACUCGCCCGA [40-75]
- Ki [2]: 2.25 nM

Sequence: GGGAGGACGAUGCGGNNNNNNNNNNNNNNNNNNNNNNNNNNNNNNNNNNNNNNNNCAGACGACUCGCCCGA [random 40N7 RNA pool]
- Kd ([1]; 2'-F C and U (RNA transcript of template), random 2'-F RNA, DPBS, 1 mM MgCl2, 37 C): 10 nM

Source: patent US6124449
